Measured values taken from US20250313633A1.

Tests used:
[1] = target: human full-length B7H3 on MCF-7 cells (human) (UniProt Q5ZPR3); experiment: FACS on MCF-7 cells; negative control
[2] = target: human full-length B7H3 on MCF-7 cells (human) (UniProt Q5ZPR3); experiment: cell-based or functional assay
[3] = target: cynomolgus monkey B7H3 on transfected FlpinCHO cells (W3XX088-FlpinCHO.cProl.pool) (cynomolgus monkey); experiment: FACS on cynomolgus monkey B7H3-transfected FlpinCHO cell pool; negative control

Sequence of human full-length B7H3 on MCF-7 cells (human) (Q5ZPR3 29-534): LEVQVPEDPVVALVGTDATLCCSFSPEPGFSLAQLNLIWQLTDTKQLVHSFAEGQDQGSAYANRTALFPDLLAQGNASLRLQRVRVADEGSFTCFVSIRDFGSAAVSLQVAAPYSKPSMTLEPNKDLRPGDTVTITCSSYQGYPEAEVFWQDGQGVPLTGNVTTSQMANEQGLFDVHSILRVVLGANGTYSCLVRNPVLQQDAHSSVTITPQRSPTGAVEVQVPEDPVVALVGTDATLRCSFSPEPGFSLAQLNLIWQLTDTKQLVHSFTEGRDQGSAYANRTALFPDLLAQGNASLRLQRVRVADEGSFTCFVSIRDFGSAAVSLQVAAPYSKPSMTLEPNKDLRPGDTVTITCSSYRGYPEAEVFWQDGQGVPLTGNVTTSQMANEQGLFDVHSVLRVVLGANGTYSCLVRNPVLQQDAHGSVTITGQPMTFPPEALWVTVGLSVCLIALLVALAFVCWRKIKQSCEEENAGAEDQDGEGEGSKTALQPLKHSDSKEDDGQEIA

- Max MFI [1]: 47.8 MFI
- Internalization on MCF-7, Max MFI [2]: 21 MFI
- Max MFI [3]: 6.67 MFI
Substance: Human IgG1 isotype antibody
